Laboratory results as given in US20180057591A1 (Eli Lilly, published 2018).
Substitutions are numbered along the chain they refer to.

Key:
[1] = target: T1, human Tim-3-Fc (R&D Systems) (human, UniProt Q8TDQ0 22-130, biotinylated in the phosphatidylserine assay; ruthenylated (sulfo-tag NHS-ester) in the galectin-9 assay); test: flow cytometry, blocking of biotinylated hTIM-3-Fc binding to phosphatidylserine on camptothecin-treated DO11.10 cells; blocking of hTIM-3-Fc Biotin binding to phosphatidylserine on camptothecin-treated DO11.10 cells
T1 construct: Bought from R&D Systems; also called hTIM-3-Fc; hTIM-3-Fc Biotin; not shown: Fc part of the bought fusion protein

[2] = target: T2, human Tim-3 on cells (Tim-3 DO11.10 cells, a human Tim-3 expressing DO11.10 cell line) (human, UniProt Q8TDQ0 22-301); test: cell-based or functional assay
[3] = target: T1, human Tim-3-Fc (R&D Systems); test: MSD blocking assay, ruthenylated hTim-3-Fc binding to plate-bound galectin-9-biotin
[4] = target: T2, human Tim-3 on cells (Tim-3 DO11.10 …); test: flow cytometry, A488-labelled antibody on Tim-3 DO11.10 cells
[5] = target: T3, human Tim-3-IgV-Fc single arm antigen (SAG) (human, UniProt Q8TDQ0 22-130); test: SPR, Biacore T100, antibody captured by Human Fab Binder, Tim-3 SAG as analyte, 1:1 Langmuir with mass transport
T3 construct: Single arm format: the second (Fc only) chain is not described; also called Tim-3 SAG; not shown: Fc part

[6] = target: T1, human Tim-3-Fc (R&D Systems); test: ELISA, plate coated with human Tim-3-Fc
hTim-3-IgV-FLAG = target: T4, hTim-3-IgV-FLAG (human, UniProt Q8TDQ0 22-130, density indicating glycosylation at Asn99); test: SPR, Biacore T200, Fab captured, hTim-3-IgV-FLAG as analyte, HBS-EP, 25 C, 1:1 binding
T4 construct: Purified from 293HEK supernatant with anti-FLAG resin; also called hTim-3-FLAG; not shown: FLAG tag

B1: Antibody A (antibody, human IgG1, kappa, V domains shown)
VH: EVQLLESGGGLVQPGGSLRLSCAASGFTFSSYYMSWVRQAPGKGLEWVSAISGSGGSTYYADSVKGRFTISRDNSKNTLYLQMNSLRAEDTAVYYCARYARTAFDLWGQGTLVTVSS
VL: DIVMTQSPSSLSASVGDGVTITCQASQDIYNYLNWYQQKPGKAPKLLIYAASSLQSGVPSRFSGSGSGTDFTLTISSLQPEDFATYYCQQANSFPPTFGQGTKLEIKR
notes: also called anti-human Tim-3; Antiboby A
- IC50 [1]: 0.32 nM
- EC50 (nM), IL-2 production of hTim-3 DO11.10 cells with A20 cells and OVA peptide [2]: 3.71 nM
- IC50 [3]: 5.6 nM
- EC50 [4]: 0.09 nM
- Kd [5]: 0.398 nM
- koff [5]: 0.000927 s⁻¹
- kon [5]: 2.33e+06 M⁻¹ s⁻¹
- EC50 [6]: 0.0207 nM

B2: Antibody C (antibody, human IgG1, kappa, V domains shown)
VH: B1 VH with S54N, G56K, A100Y, R101N, A103G
VL: B1 VL with A50Y, L54I, Q55V
- EC50 (nM), IL-2 production of hTim-3 DO11.10 cells with A20 cells and OVA peptide [2]: 3.35 nM
- Kd [5]: 0.173 nM
- koff [5]: 0.000138 s⁻¹
- kon [5]: 797000 M⁻¹ s⁻¹

B3: Antibody B (antibody, human IgG1, kappa, V domains shown)
VH: B1 VH with T28S, Y32F, M34F, S54N, G56R, A100Y, R101N, A103G
VL: B1 VL with Q27E, D28A, N31G, Q55P, S56I, N92Y, S93G
- EC50 (nM), IL-2 production of hTim-3 DO11.10 cells with A20 cells and OVA peptide [2]: 6.08 nM
- Kd [5]: 0.158 nM
- koff [5]: 0.000106 s⁻¹
- kon [5]: 675000 M⁻¹ s⁻¹

B4: Antibody A-Fab (Fab, V domains shown)
VH: B1 VH
VL: B1 VL
notes: Made by clipping Antibody A with immobilized papain; also called Fab for Antibody A
- Kd (hTim-3-IgV-FLAG): 7.92 nM
- koff (hTim-3-IgV-FLAG): 0.00286 s⁻¹
- kon (hTim-3-IgV-FLAG): 362000 M⁻¹ s⁻¹
